Results as given in the nanobody polyreactivity screen of Harvey et al. (2022).

test: yeast display, Sf9 membrane polyspecificity reagent, FACS + sequencing; frameworks hold sequencing errors
Procedure, shortened: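 Synthetic nanobody libraries on Saccharomyces cerevisiae BJ5465 were galactose-induced for 36–48 hours, stained 1 hour at 4 °C with 10% biotinylated, detergent-solubilized Sf9 membrane reagent and enriched on streptavidin microbeads. FACS then separated cells into low and high (top ~1%) gates by anti-HA (expression) and streptavidin (reagent binding) fluorescence. Genes were colony-PCR amplified, MiSeq 2 × 250 sequenced and CDR-length filtered. A clone's polyreactivity label is that of its gate of origin.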

Row | Sequence | polyreactivity (PSR sort gate)
1 | QVQLVESGGGLVQAGGSLRLSCAASGRIFRFNAMGWYRQAPGKERELVAAITSGVRTNYADSVKGRFTISRDNAKNTVYLQMNSLKPEDTAVYYCAASRHYPGYRRYDYWGQGTQVTVSS | high polyreactivity
2 | QVQLVESGGGLVQAGGSLRLSCAASGRIFRFYAMGWYRKAPGKERELVAAITRNVGSTFYADSVKGRFTISRDNAKKTVYLQMNSLKPADTAVYYCAAESDYYYRYTFDYWGQGTQVTVSS | low polyreactivity
3 | QVQLVESGGGLVQAGGSLRLSCAASGRIFRFYAMGWYRQAPGKERELVADISRRGGSTYYADSVKGRFTISRDNAKNTVYLQMNSLKPEDTAVYYCNARWYRTGSTYHEDYWGQGTQVTVSS | high polyreactivity
4 | QVQLVESGGGLVQAGGSLRLSCAASGRIFRFYAMGWYRQAPGKERELVASISSTGGSTYYADSVKGRFTISRDNAKNTVYLQMNSLKPEDTAVYYCNTVYGYVTTYGYWGQGTQVTVSS | high polyreactivity
5 | QVQLVESGGGLVQAGGSLRLSCAASGRIFRFYVMGWYRQAPGKERELVAAISDSSPSTYYADSVKGRFTISRDNAKKTVYLQMNSLKPEDTAVYYCAARYPPYWSYDYDYWGQGTQVTVSS | low polyreactivity
6 | QVQLVESGGGLVQAGGSLRLSCAASGRIFRGNAMGWYRQAPGKERQLVADINRSGGSTYYADSVKGRFTISRDNAKNTVYLQMNSLKPEDTAVYYCNAKYRVPYAVGGDYGYWGQGTQVTVSS | high polyreactivity
7 | QVQLVESGGGLVQAGGSLRLSCAASGRIFRGNTMGWYRQAPGKERELVAAITRGGSTSYADSVKGRFTISRDNAKNTVNLQMNSLKPEDTAVYYCATRTHGEGTRRDSWGQGTQVTVSS | low polyreactivity
8 | QVQLVESGGGLVQAGGSLRLSCAASGRIFRGNTMGWYRQAPGKERELVATINGRGGSTYYADSVKGRFTISRDNAKNTVYLQMNSLKPVDTAVYYCAARRGYPRFEYWGQGTQVTVSS | high polyreactivity
9 | QVQLVESGGGLVQAGGSLRLSCAASGRIFRGYAMGWSRQAPGKERELVAAITSRGGSTYADSVKGRFTISRDNAKNTVYLQMNSLKPEDTAVYYCNAGYRADSSKLVFRGYPRYDYWGQGTQVTVSS | low polyreactivity
10 | QVQLVESGGGLVQAGGSLRLSCAASGRIFRGYAMGWYRQAPGKEREFVAAITKNGGSTYYADSVKGRFTISRDNAKNTVYLQMNSLKPEDTAVYYCAAGGPSTLDDYWGQGTQVTVSS | low polyreactivity
11 | QVQLVESGGGLVQAGGSLRLSCAASGRIFRGYAMGWYRQAPGKEREFVADITRSGGSTYYADSVKGRFTISRDNAKNTVYLQMNSLKPEDTAVYYCAREWYQYSPYHRFDYWGQGTQVTVSS | high polyreactivity
12 | QVQLVESGGGLVQAGGSLRLSCAASGRIFRGYAMGWYRQAPGKERELVAAISYSGGTTYYADSVKGRFTISRDNAKNTVYLQMNSLKPEDTAVYYCNVDADYESQWLSVGYDYWGQGTQVTVSS | low polyreactivity
13 | QVQLVESGGGLVQAGGSLRLSCAASGRIFRGYAMGWYRQAPGKERELVAAITKRGGSTYYADSVKGRFTISRDNAKNTVYFQMNSLKPEDTAVYYCAAYLPGWELREYGYWGQGTQVTVSS | high polyreactivity
14 | QVQLVESGGGLVQAGGSLRLSCAASGRIFRGYAMGWYRQAPGKERELVAGISSGDNTYYADSVKGRFTISRDNAKNTVYLQMNSLKPEDTAVYYCNADHVYAVDYDYWGQGTQVTVSS | low polyreactivity
15 | QVQLVESGGGLVQAGGSLRLSCAASGRIFRGYGMGWYRQAPGKERELVAAITSRGGSTYYADSVKGRFTISRDNAKYTVYLQMNSLKPEDTAVYYCNRDFNHRPLQSPKRPPKLGYWGQGTQVTVSS | high polyreactivity
16 | QVQLVESGGGLVQAGGSLRLSCAASGRIFRGYTMGWYRQAPGKEREFVAAITANGGRTYYADSVKGRFTISRDNAKNTVYLKMNSLKPEDTAVYYCNARTYTYRGSFDYWVQGTQVTVSS | high polyreactivity
17 | QVQLVESGGGLVQAGGSLRLSCAASGRIFRHKTLGWYRQAPGKEREMVAGITASGGDTYYADSVKGRFTISRDNAKNTVYLQMNSLKPEDTAVYYCATSQYGYRSWPGLYYWGQGTQVTVSS | low polyreactivity
18 | QVQLVESGGGLVQAGGSLRLSCAASGRIFRINAMGWYRPAPGKERELVAAITRGGSTNYADSVKGRFTISRDNAKNTVYLQMNSLKPEDTAVYYCAADVSTYYYPGWFKLYLFDYWGQGTQVTVSS | high polyreactivity
19 | QVQLVESGGGLVQAGGSLRLSCAASGRIFRKNVMGWYRQAPGKERELVATIRTGGTTNYADSVKGRFTISRDNAKNTVYLQMNSLKPEDTAVYYCAADRGGRAGFDYWGQGTQVTVSS | high polyreactivity
20 | QVQLVESGGGLVQAGGSLRLSCAASGRIFRLNAMGWYRQAPGKERELVAAITVSDSSTYADSVKGRFTISRDNAKNTVYLQMNSLKPEDTAVYYCNRDTYTEYAHSWRGWSVIFDYWGQGTQVTVSS | high polyreactivity

Row | Sequence | polyreactivity (PSR sort gate)
21 | QVQLVESGGGLVQAGGSLRLSCAASGRIFRLYAMGWYRQAPGKERELVAAISFSGSRTYYADSVKGRFTISRDNAKNNVYLQMNSLQPEDTAVYYCNKDHYVRYGLDYWGQGTQVTVSS | high polyreactivity
22 | QVQLVESGGGLVQAGGSLRLSCAASGRIFRLYAMGWYSQEPGKDRELVATITSGGTYYADSVKGRFTISRDNAKNTVYLQMISLSPEDTAVYYCTARRRLRYDFWGQGTQVTVSS | low polyreactivity
23 | QVQLVESGGGLVQAGGSLRLSCAASGRIFRPYAMGWYRQAPGKERELVAAISVSGVITYYADSVKGRFTISRDNAKNTVYLQMISLKPEDTAVYYCATDYTPRRWGRLYDYWGQGTQVTVSS | low polyreactivity
24 | QVQLVESGGGLVQAGGSLRLSCAASGRIFRPYAMGWYRQAPGKERELVATITGSGGTTYYADSVKGRFTISRDNAKNSVYFQMNSLKPEDTAVYYCNVDPRSDIIPMDYWGQGTQVTVSS | low polyreactivity
25 | QVQLVESGGGLVQAGGSLRLSCAASGRIFRPYTMGWYRQAPGKERELVAANSWRGGSTYYADSVKVRFTISLDNAKNTVYLLINSLKPEATAVYYCATYVKVIRTAGTRPKMGYWGQVTQVTVSS | high polyreactivity
26 | QVQLVESGGGLVQAGGSLRLSCAASGRIFRRNTMGWSRQAPGKERELVAAITSSGGSTYADSVKGRFTISRDNAKKTVYLQMNSLKPEDTAVYYCATYVAYHRGYRTYDHWGQGTQVTVSS | low polyreactivity
27 | QVQLVESGGGLVQAGGSLRLSCAASGRIFRRNTMGWYRQAPGKERELVAAITSSGGSTYADSVKGRFTISRDNAKNTVYLQMNSLKPEDTAVYYCAAVRLYRYDYWGQGTQVTVSS | low polyreactivity
28 | QVQLVESGGGLVQAGGSLRLSCAASGRIFRRYAMGWYRQAPGKEREFVAAITDGSTYYADSVKGRFTISRDNAKNTVYLQMNSLKPEDTAVYYCATQYGWSYSRRFYYWGQGTQVTVSS | high polyreactivity
29 | QVQLVESGGGLVQAGGSLRLSCAASGRIFRRYAMGWYRQAPGKERELVAAITRSGGSTYYADSVKGRFTISRDNAKNTVYLQMNSLKPEDTAVYYCAARQVGRYYYLSRYYYWGQGTQVTVSS | high polyreactivity
30 | QVQLVESGGGLVQAGGSLRLSCAASGRIFRRYAMGWYRQAPGTERELVAAITASGGITYYADSVKGRFTISRDNAKNTVYLQMNSLKPEDTAVYYCAARGSSGYDYWGQGTQVTVSS | high polyreactivity
31 | QVQLVESGGGLVQAGGSLRLSCAASGRIFRSYAMGWYREAPGKERELVAAISSGGSTNYADSVKGRFTISRDNAKNTVYLQLNSLKPEDTAVYYCAAELWAYTWYWHSDYWGQGTQVTVSS | low polyreactivity
32 | QVQLVESGGGLVQAGGSLRLSCAASGRIFRSYAMGWYRQAPGKERELVAAISRSGGSTYYADSVKGRFTISRDNAKNTVYLQMNSLKPEDTAVYYCAGVYTYPLGYYHYTYDYWGQGTQVTVSS | low polyreactivity
33 | QVQLVESGGGLVQAGGSLRLSCAASGRIFRSYAMGWYRQAPGKERELVAAITWSGGSTYYADSVKGRFTISRDNAKNTVYLQMHSLKPEDTAVYYCARVVTKKYSHTGYEYWGQGTQVTVSS | high polyreactivity
34 | QVQLVESGGGLVQAGGSLRLSCAASGRIFRSYAMGWYRQAPGKERELVAAMTWGGGRTYYADSVKGRFTISRDNAKNTVYLQMNSLKPEDTAVYYCNTLAYPYYRGSKYDYWGQGTQVTVSS | high polyreactivity
35 | QVQLVESGGGLVQAGGSLRLSCAASGRIFRTNAMGWYRQAPGKERELVAAISDSGADTSYADSVKGRFTISRDNAKNTVYLQMNSLKPEDTAVYYCNRGRVYYRYLKDYDYWGQGTQVTVSS | low polyreactivity
36 | QVQLVESGGGLVQAGGSLRLSCAASGRIFRTYALGWYRQAPGKERELVAAINSGGTTYYADSVKGRFTISRDNAKNTVYLQLNSLKPEDTAVYYCNAEYYYAFLRLWYDYWGQGTQVTVSS | high polyreactivity
37 | QVQLVESGGGLVQAGGSLRLSCAASGRIFRTYAMGWYRQAPGKERELVAAINSVDRTYYADSVKGRFTISRDNAKNTVYLQMNSLKPEDTAVYYCAARGYRGHDEFGYWGQGTQVTVSS | high polyreactivity
38 | QVQLVESGGGLVQAGGSLRLSCAASGRIFRTYAMGWYRQAPGKERELVAAIRSGGSTKYADSVKGRFTISRDNAKNTVYLQMNSLKPEDTAVYYCAAAVLGRYSAGDGYWGQGTQVTVSS | low polyreactivity
39 | QVQLVESGGGLVQAGGSLRLSCAASGRIFRVYAMGWYRQAPGKERELVAAISSYGGSTYYADSVKGRFTISRDNAKNTVYLQMNSLIPEDTAVYYCAAESSPDGYFLSDYWGQGTQVTVSS | low polyreactivity
40 | QVQLVESGGGLVQAGGSLRLSCAASGRIFRWYALGWYRQAPGKERELVAAISSRGGSTYYADSVKGRFTISRDNAKNTVYLQLNSLKPEDTAVYYCAADTSGWQPRYDYWGQGTQVTVSS | high polyreactivity
